Here are results for one molecule from US20250002593A1 (INMAGENE PTE, published 2025).

The target in one assay is T1, membrane hIL-36R (human, UniProt Q9HB29 20-575).
T1 sequence: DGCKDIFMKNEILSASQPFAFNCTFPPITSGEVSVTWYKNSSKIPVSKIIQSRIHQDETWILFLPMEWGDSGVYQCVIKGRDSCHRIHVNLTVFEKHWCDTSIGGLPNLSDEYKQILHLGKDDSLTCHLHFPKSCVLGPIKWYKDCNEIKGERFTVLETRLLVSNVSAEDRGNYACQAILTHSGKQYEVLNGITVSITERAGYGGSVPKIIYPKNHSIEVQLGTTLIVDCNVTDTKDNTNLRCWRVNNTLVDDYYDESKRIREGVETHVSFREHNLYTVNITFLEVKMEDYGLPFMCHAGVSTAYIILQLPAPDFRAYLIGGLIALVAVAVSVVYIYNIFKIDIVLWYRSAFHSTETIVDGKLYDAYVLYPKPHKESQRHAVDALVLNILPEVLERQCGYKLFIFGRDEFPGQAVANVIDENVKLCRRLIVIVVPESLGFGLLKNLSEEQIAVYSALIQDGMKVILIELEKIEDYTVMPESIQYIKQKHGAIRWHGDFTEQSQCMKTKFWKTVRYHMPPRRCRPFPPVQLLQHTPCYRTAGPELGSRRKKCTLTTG
The assay can be described thus: cell-based or functional assay.

Assay [1] deals with T2, Recombinant hIL-36R protein (Acrobio, Cat #IL2-H52H6) (human, UniProt Q9HB29 20-335).
T2 construct: Bought soluble protein; also called recombinant human IL-36R protein
T2 sequence: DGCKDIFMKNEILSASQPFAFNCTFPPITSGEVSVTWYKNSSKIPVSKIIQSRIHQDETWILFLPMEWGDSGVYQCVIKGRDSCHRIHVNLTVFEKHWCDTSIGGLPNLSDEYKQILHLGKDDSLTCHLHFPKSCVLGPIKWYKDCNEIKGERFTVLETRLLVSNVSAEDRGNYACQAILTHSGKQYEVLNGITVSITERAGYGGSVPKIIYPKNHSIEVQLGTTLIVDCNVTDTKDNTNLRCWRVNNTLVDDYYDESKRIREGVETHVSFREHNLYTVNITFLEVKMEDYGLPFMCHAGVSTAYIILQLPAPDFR
Put plainly: BLI as in Example 2, antibody on Protein A sensor, hIL-36R analyte.

In assay [2] the target is T3, mouse IL-36R (R&D, Cat #2354-RP) (mouse, UniProt Q9ERS7 22-338, limits assumed).
T3 construct: Bought; also called recombinant mouse IL-36R protein
T3 sequence (looked up): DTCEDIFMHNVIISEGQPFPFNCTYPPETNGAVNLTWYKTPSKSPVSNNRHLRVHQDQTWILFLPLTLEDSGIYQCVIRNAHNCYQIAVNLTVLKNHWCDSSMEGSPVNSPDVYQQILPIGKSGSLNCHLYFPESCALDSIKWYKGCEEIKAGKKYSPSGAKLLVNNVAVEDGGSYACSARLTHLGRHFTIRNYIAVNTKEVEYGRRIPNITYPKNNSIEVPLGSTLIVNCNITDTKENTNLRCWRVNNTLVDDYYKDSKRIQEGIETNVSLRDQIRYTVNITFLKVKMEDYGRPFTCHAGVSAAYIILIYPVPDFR
Put plainly: BLI, antibody on Protein A sensor, recombinant mouse IL-36R as analyte. (BLI is a label-free optical method that tracks binding on a fibre tip over time.)

The target in assay [3] is T4, Recombinant cynomolgus IL36R protein (Acrobio, Cat #IL2-C52H5) (cynomolgus, UniProt A0A2K5WSK9 20-335).
T4 construct: Bought; also called cyno IL-36R
T4 sequence: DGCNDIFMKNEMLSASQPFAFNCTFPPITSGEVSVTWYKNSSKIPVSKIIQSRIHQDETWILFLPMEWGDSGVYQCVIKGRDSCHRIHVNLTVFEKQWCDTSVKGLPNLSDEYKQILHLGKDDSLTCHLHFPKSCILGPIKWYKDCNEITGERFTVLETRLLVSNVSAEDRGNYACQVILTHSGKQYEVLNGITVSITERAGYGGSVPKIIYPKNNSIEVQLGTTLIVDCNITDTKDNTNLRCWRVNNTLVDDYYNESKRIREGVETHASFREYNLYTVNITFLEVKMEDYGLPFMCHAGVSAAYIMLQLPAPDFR
The assay can be described thus: BLI, antibody on Protein A sensor, recombinant cynomolgus IL36R as analyte.

B1: 5F7-hu-3 (antibody, V domains shown)
VH: QVQLVESGGGLVKPGGSLRLSCAASGFAFTDYYMNWIRQAPGKGLEWVALIRNKAAGYTIYYSDSVKGRFTISRDNAKSSLYLQMNSLRAEDTAVYYCVRDMTIYDGYYVDYALDYWGQGTLVTVSS
VL: DIVMTQSPSSVSASVGDRVTITCRASQNINIWLSWYQQKPGKAPKLFIYKASNLHTGVPSRFSGSGSGTDFTLTISSLQPEDFATYYCLQSQSYPLTFGQGTKLEIK
notes: Humanized 5F7; also called humanized 5F7
Regarding B1, the “IC50, IL-36R reporter assay: inhibition of ligand induced luminescence in Jurkat-IL36R-IL1Racp-NFkB-luc cells” value in the assay with membrane hIL-36R was 0.0637 µg/mL. In assay [1], the Kd turned out to be 4.55 nM, the koff amounted to 0.000194 s⁻¹ and the kon is 42700 M⁻¹ s⁻¹. Besides, the binding result in assay [2] is reported as “no binding (tested: up to 100 nM IL-36R)”. For the same molecule, in assay [3], the binding result is recorded as “no binding (tested: up to 100 nM IL-36R)”.

Usually Kd stands for the free concentration of one partner at which half of the binding sites on the other are occupied at equilibrium, for simple one-to-one binding. The term koff denotes a measure of how fast the partners let go of each other. For orientation: kon means the second-order rate constant of association.
